According to US20160207960A1 (FEINSTEIN INSTITUTE FOR MEDICAL RESEARCH, published 2016):
Each block holds one binder with its values, some of them ahead of it.

B1: rhMD2 (Accession #BAA78717; Glu17-Asn160) with 10-His tag at the C-terminus (receptor, human)
chain: EAQKQYWVCNSSDASISYTYCDKMQYPISINVNPCIELKRSKGLLHIFYIPRRDLKQLYFNLYITVNTMNLPKRKEVICRGSDDDYSFCRALKGETVNTTISFSFKGIKFSKGKYKCVVEAISGSPEEMLFCLEFVILHQPNSNHHHHHHHHHH
notes: range 17-160; From R&D Systems, expressed in E. coli; also called TLR4 co-receptor MD2
B2: Recombinant human (rh) CIRP (Accession #NP_001271; full length) with C-terminal DDK tag (ligand)
chain: MASDEGKLFVGGLSFDTNEQSLEQVFSKYGQISEVVVVKDRETQRSRGFGFVTFENIDDAKDAMMAMNGKSVDGRQIRVDQAGKSSDNRSRGYRGGSAGGRGFFRGGRGRGRGFSRGGGDRGYGGNRFESRSGGYGGSRDYYSSRSQSGGYSDRSSGGSYRDSYDSYATHNE
notes: Bought from Origene, expressed in HEK293 cells; also called recombinant human CIRP; human CIRP; not shown: C-terminal DDK tag

How the values were obtained:
[1] = molecular target: B2; experiment: SPR, BIAcore T200, kinetic analysis, 1:1 Langmuir fit; target rhMD2
Description: (§1) Analysis of protein-protein and peptide-protein interactions were conducted using the BIAcore T200 instrument (GE Healthcare). Binding reactions were performed in 1×PBS buffer containing 0.01% Tween-20 (pH 7.4). The CM5 dextran chip (flow cell-2) was first activated by injection with 89 μl of 0.1 M […] and 0.1 M N-hydroxysuccinimide. An aliquot of 200 μl of 5 μg/ml of the ligand diluted in 10 mM sodium acetate (pH 4.5) was injected into flow cell-2 of the CM5 chip for immobilization. Next, 135 μl of 1 M ethanolamine (pH 8.2) was then injected to block the remaining active sites. The flow cell-1 without coating with the ligand was used as a control to evaluate nonspecific binding. The binding analyses were performed at flow rate of 30 μl/min at 25° C. […] The signal from the blank channel (flow cell-1) was subtracted from the channel (flow-cell 2) coated with the ligand. Data were analyzed by the BIAcore T200 Evaluation Software. For all samples, a blank injection with buffer alone was subtracted from the resulting reaction surface data. Data were globally fitted to the Lagmuir model for a 1:1 binding.
(§2) Surface plasmon resonance (SPR) analysis was utilized to determine the physical interaction and binding affinity between rhCIRP and pattern-recognition receptors and MD2.

[2] = molecular target: T1, rhTLR4 (Accession #O00206; Glu24-Lys631) with 10-His tag at the C-terminus (human, UniProt O00206 24-631); experiment: SPR, BIAcore T200, positive control; rhMD2 to rhTLR4, positive control
T1 construct: range 24-631; From R&D Systems, expressed in mouse myeloma NS0 cells
Description: as §1, §2

[3] = molecular target: B1; experiment: SPR, 15-mer oligopeptide as analyte over immobilized rhMD2
Description: as §1, §2

[4] = molecular target: T1, rhTLR4 (Accession #O00206; …); experiment: SPR, BIAcore T200, kinetic analysis, 1:1 Langmuir fit; target rhTLR4
Description: as §1, §2

[5] = molecular target: T2, rhTLR4/MD2 complex (rhTLR4 Glu24-Lys631 co-expressed with rhMD2 Glu17-Asn160, His tag at each protein) (human, UniProt O00206 24-631; Q9Y6Y9 17-160); experiment: SPR, BIAcore T200, kinetic analysis, 1:1 Langmuir fit; target rhTLR4/MD2 complex
T2 construct: range 24-631;range 17-160; Purified from NS0 cells co-expressing both proteins; R&D Systems; not shown: His tag; for the complex only 'His tag at each protein' is said (a general sentence gives a C-terminal 10-His tag for rh)
Description: as §1, §2

[6] = molecular target: T3, rhRAGE (Accession #Q15109; Ala23-Ala344) with C-terminal 6-His tag (human, UniProt Q15109 23-344); experiment: SPR (BIAcore T200), analyte rhRAGE over immobilized rhCIRP; apparent KD from kinetic analysis
T3 construct: range 23-344; From Biovision, expressed in HEK293 cells
Description: as §1, §2

[7] = molecular target: T4, rhTLR2 (Accession #NP_003255; Glu21-Leu590) with 10-His tag at the C-terminus (human, UniProt O60603 21-590); experiment: SPR (BIAcore T200), analyte rhTLR2 over immobilized rhCIRP; apparent KD from kinetic analysis
T4 construct: range 21-590; From R&D Systems, expressed in mouse myeloma NS0 cells
Description: as §1, §2

T1 sequence (O00206 other isoform, or with tags, fused parts or gaps limits assumed): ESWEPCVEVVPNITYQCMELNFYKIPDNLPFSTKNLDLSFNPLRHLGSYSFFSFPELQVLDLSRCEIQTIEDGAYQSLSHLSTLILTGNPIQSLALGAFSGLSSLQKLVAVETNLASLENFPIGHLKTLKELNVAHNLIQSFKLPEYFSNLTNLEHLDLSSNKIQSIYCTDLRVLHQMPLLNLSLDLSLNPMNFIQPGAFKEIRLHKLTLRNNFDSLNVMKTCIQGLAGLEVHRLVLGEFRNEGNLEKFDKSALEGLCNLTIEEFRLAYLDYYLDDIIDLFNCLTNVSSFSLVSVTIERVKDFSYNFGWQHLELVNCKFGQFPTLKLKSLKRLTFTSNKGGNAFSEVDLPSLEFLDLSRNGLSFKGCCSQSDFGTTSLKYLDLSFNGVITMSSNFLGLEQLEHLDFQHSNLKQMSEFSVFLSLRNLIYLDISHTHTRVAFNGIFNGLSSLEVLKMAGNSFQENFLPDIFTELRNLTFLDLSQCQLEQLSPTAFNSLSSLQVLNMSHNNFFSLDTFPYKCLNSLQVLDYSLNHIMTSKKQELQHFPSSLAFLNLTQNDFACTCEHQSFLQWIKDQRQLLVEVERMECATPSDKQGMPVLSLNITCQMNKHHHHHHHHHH
T3 sequence (Q15109 other isoform, or with tags, fused parts or gaps limits assumed): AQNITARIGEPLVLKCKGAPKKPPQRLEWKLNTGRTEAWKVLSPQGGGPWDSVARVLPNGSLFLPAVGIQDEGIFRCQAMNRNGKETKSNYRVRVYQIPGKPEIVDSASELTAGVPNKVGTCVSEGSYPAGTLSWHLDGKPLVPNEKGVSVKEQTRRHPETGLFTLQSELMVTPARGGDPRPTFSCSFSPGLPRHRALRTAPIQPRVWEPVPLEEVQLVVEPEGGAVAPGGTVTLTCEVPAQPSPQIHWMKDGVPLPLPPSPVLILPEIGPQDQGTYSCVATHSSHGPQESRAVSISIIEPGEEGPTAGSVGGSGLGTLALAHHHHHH
T2 sequence (O00206 24-631 limits assumed, form in doubt, one chain of several): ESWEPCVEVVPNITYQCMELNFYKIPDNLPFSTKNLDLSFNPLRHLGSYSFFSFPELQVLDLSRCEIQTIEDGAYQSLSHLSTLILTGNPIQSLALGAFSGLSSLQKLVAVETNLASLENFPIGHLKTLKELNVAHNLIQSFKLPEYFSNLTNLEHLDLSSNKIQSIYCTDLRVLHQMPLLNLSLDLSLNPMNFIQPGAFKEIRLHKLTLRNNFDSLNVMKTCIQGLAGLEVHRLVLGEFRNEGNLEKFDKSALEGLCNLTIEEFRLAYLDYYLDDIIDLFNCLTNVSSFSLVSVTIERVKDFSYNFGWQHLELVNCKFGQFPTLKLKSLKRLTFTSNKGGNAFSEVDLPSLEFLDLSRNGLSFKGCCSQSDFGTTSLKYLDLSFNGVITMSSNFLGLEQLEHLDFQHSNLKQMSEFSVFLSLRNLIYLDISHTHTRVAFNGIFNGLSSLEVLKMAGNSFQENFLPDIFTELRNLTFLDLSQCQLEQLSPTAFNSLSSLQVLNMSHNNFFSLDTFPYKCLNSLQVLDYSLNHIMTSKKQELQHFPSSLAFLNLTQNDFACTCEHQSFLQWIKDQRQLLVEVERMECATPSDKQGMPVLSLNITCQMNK
T4 sequence (O60603 other isoform, or with tags, fused parts or gaps limits assumed): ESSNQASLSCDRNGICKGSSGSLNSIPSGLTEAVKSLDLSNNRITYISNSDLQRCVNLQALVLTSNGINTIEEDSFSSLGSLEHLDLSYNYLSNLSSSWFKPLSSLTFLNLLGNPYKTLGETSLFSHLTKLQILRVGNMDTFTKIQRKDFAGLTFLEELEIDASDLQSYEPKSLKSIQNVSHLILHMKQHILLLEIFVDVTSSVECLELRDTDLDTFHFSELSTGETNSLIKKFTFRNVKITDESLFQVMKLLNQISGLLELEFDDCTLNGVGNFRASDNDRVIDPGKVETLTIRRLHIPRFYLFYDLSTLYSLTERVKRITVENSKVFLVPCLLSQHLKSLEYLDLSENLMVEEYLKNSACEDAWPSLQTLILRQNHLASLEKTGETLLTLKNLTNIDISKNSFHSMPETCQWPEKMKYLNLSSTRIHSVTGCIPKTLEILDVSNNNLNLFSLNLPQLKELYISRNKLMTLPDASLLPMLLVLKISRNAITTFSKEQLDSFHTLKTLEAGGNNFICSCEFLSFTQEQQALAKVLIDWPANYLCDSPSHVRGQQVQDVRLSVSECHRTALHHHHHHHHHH

Binder: B1
- Kd [1]: 0.302 µM
- Kd [2]: 0.0537 µM

- Kd [3]: 0.0297 µM
Binder: GRGFSRGGGDRGYGG [CIRP-derived oligopeptide C23 (human CIRP aa 111-125)]

- Kd [3]: 1.51 µM
Binder: RGFFRGGRGRGRGFS [human CIRP 15-mer oligopeptide aa 101-115]

Binder: B2
- Kd [4]: 0.617 µM
- Kd [5]: 0.239 µM
- Kd [6]: 0.0331 µM
- Kd [7]: 0.258 µM

- Kd [3]: 0.129 µM
Binder: GGRGRGRGFSRGGGD (Synthetic, Genscript) [CIRP-derived oligopeptide C22 (human CIRP aa 106-120)]
